From PMC6877725, “Identification of the periplasmic DNA receptor for natural transformation of Helicobacter pylori”

Columns and labels:
ComH-His6 [1] = biological target: T1, ComH-His6 (Helicobacter pylori 26695, UniProt O26055 20-479); test: MST; conditions: 10 mM MgCl2, 150 mM NaCl; EMSA: 10 mM Tris-HCl pH 7.5, 50 mM KCl, ~100 mM NaCl, 0.1 mM MgCl2, 1 mM DTT, 0.1 µg/µl BSA, on ice 30 min; MST and SV-AUC (20 °C): 50 mM Tris-HCl pH 7.4 …
T1 sequence: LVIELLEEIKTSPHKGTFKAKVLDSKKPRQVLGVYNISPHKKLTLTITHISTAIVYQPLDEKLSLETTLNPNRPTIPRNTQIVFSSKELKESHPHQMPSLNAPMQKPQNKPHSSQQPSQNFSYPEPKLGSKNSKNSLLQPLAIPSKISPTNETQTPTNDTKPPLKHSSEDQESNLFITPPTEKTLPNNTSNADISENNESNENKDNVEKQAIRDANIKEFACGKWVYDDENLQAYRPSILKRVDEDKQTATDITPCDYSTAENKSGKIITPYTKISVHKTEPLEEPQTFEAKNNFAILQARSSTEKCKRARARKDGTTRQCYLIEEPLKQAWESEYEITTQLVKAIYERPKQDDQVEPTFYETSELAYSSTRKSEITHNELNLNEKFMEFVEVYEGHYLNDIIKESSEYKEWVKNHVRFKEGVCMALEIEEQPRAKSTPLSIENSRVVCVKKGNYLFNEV

ComH-NTD-His6 [2] = biological target: T2, ComH-NTD-His6 (Helicobacter pylori 26695, UniProt O26055 20-169); test: MST; conditions: 10 mM MgCl2, 150 mM NaCl; EMSA: 10 mM Tris-HCl pH 7.5, 50 mM KCl, ~100 mM NaCl, 0.1 mM MgCl2, 1 mM DTT, 0.1 µg/µl BSA, on ice 30 min; MST and SV-AUC (20 °C): 50 mM Tris-HCl pH 7.4 …
T2 sequence: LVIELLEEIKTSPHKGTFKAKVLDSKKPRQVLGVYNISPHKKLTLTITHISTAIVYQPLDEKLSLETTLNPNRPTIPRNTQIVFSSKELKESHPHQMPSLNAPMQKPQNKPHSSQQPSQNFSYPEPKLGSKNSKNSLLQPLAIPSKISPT

ComH-CTD-His6 [3] = biological target: T3, ComH-CTD-His6 (Helicobacter pylori 26695, UniProt O26055 170-479); test: MST; conditions: 10 mM MgCl2, 150 mM NaCl; EMSA: 10 mM Tris-HCl pH 7.5, 50 mM KCl, ~100 mM NaCl, 0.1 mM MgCl2, 1 mM DTT, 0.1 µg/µl BSA, on ice 30 min; MST and SV-AUC (20 °C): 50 mM Tris-HCl pH 7.4 …
T3 sequence: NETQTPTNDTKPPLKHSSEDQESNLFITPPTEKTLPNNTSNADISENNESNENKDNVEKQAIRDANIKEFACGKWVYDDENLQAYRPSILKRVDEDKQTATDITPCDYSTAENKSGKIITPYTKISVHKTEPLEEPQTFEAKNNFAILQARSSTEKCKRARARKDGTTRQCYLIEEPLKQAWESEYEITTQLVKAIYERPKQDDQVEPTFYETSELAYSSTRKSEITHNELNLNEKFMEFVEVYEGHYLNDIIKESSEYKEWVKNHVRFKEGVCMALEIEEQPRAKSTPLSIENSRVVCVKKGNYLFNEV

ComH-His6 [4] = biological target: T1, ComH-His6; test: SV-AUC; conditions: EMSA: 10 mM Tris-HCl pH 7.5, 50 mM KCl, ~100 mM NaCl, 0.1 mM MgCl2, 1 mM DTT, 0.1 µg/µl BSA, on ice 30 min; MST and SV-AUC (20 °C): 50 mM Tris-HCl pH 7.4 …
ComH-His6 [5] = biological target: T1, ComH-His6; test: SV-AUC; conditions: EMSA: 10 mM Tris-HCl pH 7.5, 50 mM KCl, ~100 mM NaCl, 0.1 mM MgCl2, 1 mM DTT, 0.1 µg/µl BSA, on ice 30 min; MST and SV-AUC (20 °C): 50 mM Tris-HCl pH 7.4 …; remark: listed apart in the source
ComH-His6 [6] = biological target: T1, ComH-His6; test: EMSA; 0.5-2 µM protein; EMSA: 10 mM Tris-HCl pH 7.5, 50 mM KCl, ~100 mM NaCl, 0.1 mM MgCl2, 1 mM DTT, 0.1 µg/µl BSA, on ice 30 min; MST and SV-AUC (20 °C): 50 mM Tris-HCl pH 7.4, 150 mM NaCl, 10 mM MgCl2, 0.05% Tween20; SPR: PBS + 0.005% Tween20, 25 °C; conditions: protein: recombinant, tags: C-terminal His6
ComH-CTD-His6 [7] = biological target: T3, ComH-CTD-His6; test: as above; conditions: protein: recombinant; tags: C-terminal His6; label: 5'-Cy5 on strand 1; blunt
ComH-NTD-His6 [8] = biological target: T2, ComH-NTD-His6; test: EMSA; basically no binding, 0.5-2 µM protein; EMSA: 10 mM Tris-HCl pH 7.5, 50 mM KCl, ~100 mM NaCl, 0.1 mM MgCl2, 1 mM DTT, 0.1 µg/µl BSA, on ice 30 min; MST and SV-AUC (20 °C): 50 mM Tris-HCl pH 7.4, 150 mM NaCl, 10 mM MgCl2, 0.05% Tween20; SPR: PBS + 0.005% Tween20, 25 °C; conditions: protein: recombinant, tags: C-terminal His6
ComH-CTD-His6 [9] = biological target: T3, ComH-CTD-His6; test: EMSA; essentially no affinity, 0.5-2 µM protein; EMSA: 10 mM Tris-HCl pH 7.5, 50 mM KCl, ~100 mM NaCl, 0.1 mM MgCl2, 1 mM DTT, 0.1 µg/µl BSA, on ice 30 min; MST and SV-AUC (20 °C): 50 mM Tris-HCl pH 7.4, 150 mM NaCl, 10 mM MgCl2, 0.05% Tween20; SPR: PBS + 0.005% Tween20, 25 °C; conditions: protein: recombinant; tags: C-terminal His6; label: 5'-Cy5
ComH-His6 [10] = biological target: T1, ComH-His6; test: SPR; no satisfactory fit; EMSA: 10 mM Tris-HCl pH 7.5, 50 mM KCl, ~100 mM NaCl, 0.1 mM MgCl2, 1 mM DTT, 0.1 µg/µl BSA, on ice 30 min; MST and SV-AUC (20 °C): 50 mM Tris-HCl pH 7.4, 150 mM NaCl, 10 mM MgCl2, 0.05% Tween20; SPR: PBS + 0.005% Tween20, 25 °C; conditions: protein: recombinant; tags: C-terminal His6; label: 5'-biotin on strand 1; blunt
[11] = label: 5'-Cy5 on strand 1, blunt

18 bp dsDNA-FAM
Kd (ComH-His6 [1]): 50 nM
Kd (ComH-NTD-His6 [2]): > 40000 nM
Kd (ComH-CTD-His6 [3]): 3400 nM
Kd (ComH-His6 [4]): 300 nM
Kd (ComH-His6 [5]): 100 nM

B1: 18 bp dsDNA (Cy5-PNK1 + cPNK1) (dsDNA)
DNA 1: TAGCATCGATCAGTCCTC
DNA 2: GAGGACTGATCGATGCTA
binding result (ComH-His6 [6]; [11]): binds
binding result (ComH-CTD-His6 [7]): binds
binding result (ComH-NTD-His6 [8]; [11]): no binding

TAGCATCGATCAGTCCTC (ssDNA) [18-mer ssDNA (Cy5-PNK1)]
binding result (ComH-His6 [6]; label: 5'-Cy5): no binding
binding result (ComH-NTD-His6 [8]; label: 5'-Cy5): no binding
binding result (ComH-CTD-His6 [9]): no binding

B2: 50 bp dsDNA (Op249 + Op250) (dsDNA)
DNA 1: GTAGTGCTGTAGGAGAATATACGGGCTGCTCGTGTTGACAAGTACTGATG
DNA 2: CATCAGTACTTGTCAACACGAGCAGCCCGTATATTCTCCTACAGCACTAC
binding result (ComH-His6 [10]): binds
